Protein production data for eleven sequences are collected here from a protein production outcome set (Wang et al. 2014).

The nature of this series: label from the status in PepcDB records.

On to “AADGEGRGELSPKIKAGDLESKLIVPKNNGLKITGTFLDEISHDIPHQNWGEKEWDLDFQHMKRIGIDTVIMIRSGYRKFMTYPSPYLLKKGCYMPSVDLVDMYLRLAEKYNMKFYFGLYDSGRYWDTGDLSWEIEDNKYVIDEVWKMYGEKYKSFGGWYISGEISRATKGAIDAFRAMGKQCKDISNGLPTFISPWIDGKKAIMGTGKLTREDAVSVQQHEKEWNEIFDGIHEVVDACAFQDGHIDYDELDAFFTVNKKLADKYGMQCWTNAESFDRDMPIRFLPIKFDKLRMKLEAAKRAGYDKAITFEFSHFMSPQSAYLQAGHLYDRYREYFEIK”, for which the protein production entry is listed as “not failed”.
In the case of “AADKRIDGNGNPETREIKISDYDEITFVGSADFEYEQSDKAPYLSVTIDENLFDYLVTEVEGGTLKIYPKSIKKGFNNNSYDLRPTVYKIKSNSKELKELNTVGSGSFIISKPTKVNRMEINMAGSGNVELRGPVKGYKLECNMAGSGNIIAKDIQLDNLSCSLASSGEIEVIGTVDRASFNVAGSGEIKAFDCQARKAECNIASSGEISVYATQILDANIVGSGEIHYKGDPEISKSIMGSGSINKVK”, the protein production result is “not failed”.
Regarding “AAIYHLDVSGQATIRFRPPAFLKTLVSEHAGTTRLNTLSMIHHDDRHMLSNAYSKLREAKHSLTLVYRIVTPEGKLHWIEDHMRSSFSDD”, the protein production result was “failed”.
With “AAKPQIVEVTDDMPVEPIGVGIPEAGQTYPVIMGDYAAQQARWARIDVQPGTALSKPKPLIAKLDPELGETGPEWAPVNP”, the protein production entry is “failed”.
The entry for “AASSRSWKSWFIEQYFWLKRDKSYYSKQDDPSFQRYLDACREQSDKPYQLDTNLVNGPLVQENLYGMQVYSWNDNGKPDQKTIIYLAGGSYLNNPTTYHINMLKTLSTSLDAKIVLPIYPKAPRYTYNYTMPKLVNLYQHYYHKNQNVFLMGDSAGGGLALGLAHALHNESVPQPKQLVLLSPWLDVTMSHPEIPEYEDADPILSSWGLKRVGELWAYSADNTNHIYVSPKNGPITYLPPITLFTGTREIFYPDIRDYAAKLKAANHNITFITQEGMNHVYPIYPIEEAKTAQYQIIDAINKT” is “failed”; for “ACKVLYSLGELNERFVPKTLKERVASIADVHFEHWNKYGDSVTATVNKADKSKDRTYKTECPLEFYDALPRVGEICYAYEIFLEPQFESCEYTEHMYLNLQTPRNYAILLRNKLPRLAEMPLFSNQGKLHVRVANAPLEVIIQNSEQLELLH” it is “failed”.
The entry for “ADSPVLMVYGLDQSKMNCDRVFNVFCLYGNVEKVKFMKSKPGAAMVEMADGYAVDRAITHLNNNFMFGQKMNVCVSKQPAIMPGQSYGLEDGSCSYKDFSESRNNRFSTPEQAAKNRIQHPSNVLHFFNAPLEVTEENFFEICDELGVKRPTSVKVFSGKSERSSSGLLEWDSKSDALETLGFLNHYQMKNPNGPYPYTLKLCFSTAQHAS” is “not failed”; for “AEDPILRAIPENAFDGIAVTDAGGHVVYANSTYLALTGAATMQDVRPVERVFIGNPDVSEAVFRLLKAAREGRRLQEEVRVAGADGTQGRWMRLRVRPLGTSKREARQTVWSIADITRDRERQEDVFQTLQHAIEYLDHAPCGFFSVNPAGNLVYVNATLANWLDH” it is “failed”.
To “AEGQTVYWHAWGGDPKINAFIAWVGEQARARHGFMLEQVKLADTTEAVARVLAEKQAGRTEGGAVDLIWINGENFAAMKAQGLLSEPFAESLPNWTHVDVAGKPAVVTDFTEPTGGLESPWAMAQLVFEHDSARLPAPPRTLAQLLAWIEVNPGRFTFPQPPDYLGTTFLKQVLYGVIEDPGLLQKPVDPATYETVTAPLWTWLDRAEPYLWREGRAYPANEPALGQLFADGEIAISFAFNPGRASAAIAAGELPETVRTFTLEGGTIGNASFVAIPFNAAHAAGAKVIANLLLDPEVQARAQDPAVLGFQTVLDVAALPEPDRARFAAL” belongs “failed”; to “AEICLITGTPGSGKTLKMVSMMANDEMFKPDENGIRRKVFTNIKGLKIPHTYIETDAKKLPKSTDEQLSAHDMYEWIKKPENIGSIVIVDEAQDVWPARSAGSKIPENVQWLNTHRHQGIDIFVLTQGPKLLDQNLRTLVRKHYHIASNKMGMRTLLEWKICADDPVKMASSAFSSIYTLDKKVYDLYESAEVHTVNKVKRSK”, “not failed”.
Consider “AERTIQLPKPDMNRAGLLMKALSERHSTREYASKALSNTDLSDLLWAANGINRSSEGKRTAPSAMNRQDIDIYVVLPQGTYLYDAKGHKLNLISEGDHRSAVAGGQAFVNNAPVSLVLVSDLSKLGDAKSNHVQLMGAMDAGIVSQNISLFCSAARLATVPRASMDLVRLKAALKLKDTQMPMMNHPVGYFK”, for which the protein production entry is “not failed”.
